assay: soluble on expression in E. coli; label from the status in PepcDB or PDB records

| Sequence | soluble on expression in E. coli |
| --- | --- |
| MSLTSQVSSTTEQADEPVVGEQRKPAGAKDVRRLDRVIIRFAGDSGDGMQLTGDRFTSETASFGNDLSTLPNFPAEIRAPAGTLPGVSSFQLHFADHDILTPGDAPNVLVAMNPAALKANVSDLPRGAEVIVNTDEFTKRAMQKVGYGTSPLEDGSLDGYSVHPVPLTTLTVEALKEFELSRKEAERSKNMFALGLLSWMYHRPTEGTEKFLTTKFAKKPAIAAANIAAFRAGWNFGETTEDFAVSYEVAPAQSAFPAGTYRNISGNLALSYGLIAASRQADLPLYLGSYPITPASDILHELSKHKNFGVRTFQAEDEIAGIGAALGAAFGGSLAVTTTSGPGVALKSETIGLAVSLELPLLVVDIQRGGPSTGLPTKTEQADLLQAMYGRNGEAPVPVVAPRTPADCFEAAIEAARIALTYRTPVFLLSDGYLANGSEPWRIPETDGLPDLRVRFAQGPNHTLDDGTEVFWPYKRDPGTLARPWAIPGTPGLEHRIGGIEKQDGTGNISYDPANHDFMVRTRQAKIDGIDVPDIEVDDPDGASALVLGWGSTYGPITAAVRRLRTAGESIAQAHLRHLNPFPSNLGAVLKGYDKVVIPEMNLGQLATLIRAKYLVDAHSYNQVNGMPFKAEQLATALKEAIDEGHHHHHH | not soluble |
| MSTSSRTPSPSSLSACGGPSSSTTTAHPSSSPKSKTSVTSSRSDTDSVIPEHKPSSASSFSIGRLLFRSSGSSNSTKRDSVDSGKDDETGRSPATSRPGSPNPGGDKSPQMSTSRRLAGFASRSIRKSQWRLFKHRTFFGSQRSSMKKNQLQLPRLTLRHPSIDSSAMPLQLDVDENASGEGSDDFLQIRRSTQRRWTDSDTTGRLRDSRDSSDFNDSHDTLDIAGTSAHGVADSSSHHHHNYSMTAPVSPNVPLSASSSHSEGWKYSSQKLLWKLKPKYAYSHASSTSSSTDSAWKSLDSMTWRSVDGAEVVLRGARLENLSEIERSALQLLAAQRLTKMLPGVNLGKPKALRQKRQKLVKSNRTPTVADVQRRASGTPMPEEKRVFGVSLAMCMLNEKRLDQESRCRSLDDSTVIMLNKSKAKPTKSEPEMMSHTMPEDRKWLYPSTQNLYPTSTSNPSSPSPIMGSAPPTGSILPSANLLSAEPTTCEPQQVTGRFLKKQRPASASFSCSLDANIDDVDPHALQVPKIVENCTQYLMTYGLTQVGLFRVAGNTKRCRQLRNALEKVGGGAVINDNMVENTTSHDVATLLKEYFRDLPQSLLPGEHYSAYIGAAKLNVDERIEAIRLLFALLVSPILDTLFVLLKFLHEVSCHSQDRHDEDGELLSGNKMDARNLATIFAPSILRVDHDKLHETLAENEHQVIIVETMISNVEEIFKIPKELQCKIYTKLRETEPDRLDRILNHLSKMDSHESHPGVLLSPFPATLEEDSSPRHHRHGDHSHIGRQSPLARELTTNGKVKVQSQRSGSWPFSLTKTQTSPSRPEGQHFFPADSQDGPGPSHSHHDPSTSGTTMSATTTPGPGRKTDFSMKAADDSGRDSEFCSDELTFGTISQPETARERSVTMSTACGSPSTSNSKKTPMMASLQGATTSKSVDARSPSRERVDIRSAARSSAAAARRRLRNVVRAFRFTSMTRSTPDIAQSS | not soluble |
| MGSDKIHHHHHHMKISICGKGGCGKSSITTLLAKEFAKKGHNVLVIDGDESNLSLHKLLGMDLPKDFIEYLGGRKEFMKKLREKMDGKEVELFEGEISIDSLPKEYLVEKDNIKLLAIGKIHDFGEGCACPMGALLREFLKSLKLKDKEVVIVDTEAGIEHFGRGVEGGCDVIIAIIDPTYESIRLSKKIEEIGEKLGKKVYFIVNKVDDETKDLILENVNKDKVIAVIPNNKEIMKCGLMGEELNAELSEIKDVVEILTK | not soluble |
| MGSDKIHHHHHHMKIAVTGKGGVGKSTIVGMLARALSDEGWRVMAIDADPDANLASAIGVPAERLSALLPISKMTGLARERTGASETTGTHFILNPRVDDIPEQFCVDHAGIKLLLMGTVNHAGSGCVCPEHALVRTLLRHILTKRKECVLIDMEAGIEHFGRGTIEAVDLLVIVIEPGSRSLQTAAQIEGLARDLGIKTICHIANKLASPVDVGFILDRADQFDLLGSIPFDSAIQAADQAGLSCYDLSPACRDKAHALMAALLERVGPTQGVS | not soluble |
| QNKNSVELDGGAIFKNDKLIDKMDKSETEAYNFMIGKVSSGSMEVLNPETNRDFISLWILNSKTTTKGKFYGGKFHVKKIVNVKVAFLESQSPITYNKYMQKQIEQNAEKNIINNCNKIFNKYKEKNEDIFNVRDVYENIYKKGSPDIIKNTVIDIEPHVQIERSGKASTF | not soluble |
| MVSNSSITFKEFVDYWFEAYASTAVKPSTQKRYRQLLKPALRAIGNKPLNKVKPLDIQNIYIALAGTQSNCTILKLHRLLHEIFKHAQMWEYISDNPVKKVVPPTPEKKVFDLEHHHHHH | not soluble |

— the DeepSol protein solubility set
